What was measured:
[1] = target: T1, biotinylated Human PD1 (AcroBiosystems, reference EP-101) (human, UniProt Q15116 25-167, limits assumed, biotinylated); assay: competition ELISA: PD-L2 Fc immobilised, biotinylated PD-1 mixed with the fusion at varied concentration, streptavidin-peroxidase; blocked ligand PD-L2 [following]
T1 construct: also called biotinylated recombinant human PD-1; recombinant biotinylated PD1 protein
Procedure: (§1) FIG. 8: Competition PD-1/PD-L1 or PD-L2 ELISA assay. […] (D): PD-1/PD-L2 antagonist activity. […] Similar protocol as PD-L1/PD-1 assay was used for revelation. In this experiment, the bifunctional molecule comprises a humanized anti-PD1 antibody having a heavy chain variable domain as disclosed in SEQ ID NO: 24 and a light chain variable domain as disclosed in SEQ ID NO:28.
(§2) Competitive ELISA assay was performed by PD-1:PD-L1 Inhibitor Screening ELISA Assay Pair (AcroBiosystems; USA; reference EP-101). In this assay, recombinant hPDL1 was immobilized on plastic at 2 μg/ml in PBS pH 7.4 buffer. […] Same ELISA protocol was performed to assess PDL2/PD1 antagonist activity by coating PD-L2 Fc recombinant protein (Sinobiological, #10292-H02H).

[2] = target: T2, recombinant hPD1 (Sino Biologicals, reference 10377-H08H) (human, UniProt Q15116 25-167); assay: ELISA: hPD-1 immobilized, anti-human Fc peroxidase
T2 construct: also called Human recombinant PD-1 protein; PD1-His recombinant protein
T2 sequence (Q15116 25-167 limits assumed): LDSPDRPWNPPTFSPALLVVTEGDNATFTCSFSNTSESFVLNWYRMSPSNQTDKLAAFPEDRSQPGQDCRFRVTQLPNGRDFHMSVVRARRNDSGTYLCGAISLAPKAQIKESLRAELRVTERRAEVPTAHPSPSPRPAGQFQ

[3] = target: T1, biotinylated Human PD1 (AcroBiosystems, …); assay: competition ELISA: PD-L1 immobilized, biotinylated PD-1 at fixed concentration, antibody varied
Procedure: as §1, §2

T1 sequence (Q15116 25-167 limits assumed): as above

IC50 (read off the curve) [1]	also measured	Binder
~700 ng/mL		Humanized anti-PD1 (VH SEQ ID NO:24, VL SEQ ID NO:28) VH fusion to Cytokine-protein A (IL-7) (other, not shown: small tags and cut ends, Bifunctional molecule; also called Anti-PD1 fused to Cytokine-protein A (IL-7), VH fusion; anti PD-1 VH IL-7) heavy: QIQLVQSGSELKKPGASVKVSCKASGYTFTHYAMNWVRQAPGQGLEWMGWINTNTGEPTYAQGFTGRFVFSLDTSVSTAYLQISSLKAEDTAVYYCAREREPGMDNWGQGTLVTVSS VL: DVVMTQSPLSLPVTLGQPASISCRSSQSLVHANTNTYLEWYQQRPGQSPRLLIYKVSNRFSGVPDRFSGSGSGTDFTLKISRVEAEDVGVYYCFQGTHVPNTFGQGTKLEIK
	EC50 [2]: 1.67 ng/mL	Anti-PD1 Ab alone, no fusion, FIG. 4 / Table 1 (antibody, V domains shown) VH: QIQLVQSGSELKKPGASVKVSCKASGYTFTHYAMNWVRQAPGQGLEWMGWINTNTGEPTYAQGFTGRFVFSLDTSVSTAYLQISSLKAEDTAVYYCAREREPGMDTWGQGTLVTVSS VL: DVVMTQSPLSLPVTLGQPASISCRSSQSLVHANTNTYLEWYQQRPGQSPRLLIYKVSNRFSGVPDRFSGSGSGTDFTLKISRVEAEDVGVYYCFQGTHVPNTFGQGTKLEIKR
~900 ng/mL		Humanized anti-PD1 (VH SEQ ID NO:24, VL SEQ ID NO:28) VH fusion to CD80 (other, not shown: small tags and cut ends, Bifunctional molecule; also called anti PD-1 VH CD80) heavy: QIQLVQSGSELKKPGASVKVSCKASGYTFTHYAMNWVRQAPGQGLEWMGWINTNTGEPTYAQGFTGRFVFSLDTSVSTAYLQISSLKAEDTAVYYCAREREPGMDNWGQGTLVTVSS VL: DVVMTQSPLSLPVTLGQPASISCRSSQSLVHANTNTYLEWYQQRPGQSPRLLIYKVSNRFSGVPDRFSGSGSGTDFTLKISRVEAEDVGVYYCFQGTHVPNTFGQGTKLEIK
	IC50 [3]: 0.184 µg/mL	Anti-PD1 Ab alone, no fusion (FIG. 8 / Table 5) (antibody, V domains shown, also called anti-PD1 antibody alone) VH: QIQLVQSGSELKKPGASVKVSCKASGYTFTHYAMNWVRQAPGQGLEWMGWINTNTGEPTYAQGFTGRFVFSLDTSVSTAYLQISSLKAEDTAVYYCAREREPGMDNWGQGTLVTVSS VL: DVVMTQSPLSLPVTLGQPASISCRSSQSLVHANTNTYLEWYQQRPGQSPRLLIYKVSNRFSGVPDRFSGSGSGTDFTLKISRVEAEDVGVYYCFQGTHVPNTFGQGTKLEIK

From US20220025050A1 (OSE IMMUNOTHERAPEUTICS, published 2022)
